Tests used:
tPA [1] = target: T1, tPA (Homo sapiens, UniProt P00750); experiment: Binding of active site 125I-labeled tPA to amyloid fibrils or fibrin; details: for effect on tPA binding to amyloid fibrils: ε-aminocaproic acid at 0.1 M (100 mM); for t-PA binding relative to wt β1-28 and fibrin controls: fibrils of Charged→Gln β(1-28) variants
Method: In this study, D-Tyr-Pro-Arg-chloromethyl ketone (Bachem Bioscience) was radioiodinated by the chloramine-T method and subsequently used to irreversibly bind to the active site of tPA. (Keyt, et al, Anal. Biochem. 206:73-83 (1992)). 1 mCi of I^125 was mixed with YPRck in 1 M Tris-HCL, 0.01% Tween 20 at pH 7.5. To initiate iodination 10 μl of 1 mg/ml Chloramine-T was added. After 1 minute, 20 μl of 1 mg/ml sodium metabisulfite was added to reduce the Chloramine-T and iodide. 15 μl of 1 mg/ml tPA was then added, and the mixture was incubated at room temperature for 1 hour to allow the YPRck to bind to the tPA. Radiolabeled tPA was purified from free iodine and unreacted YPRck using a PD-10 column preequilibrated with PBS and 0.003% Tween 20. The labeled protein was stored at −20° C.
(§1) Synthetic Amyloid Fibril Formation—β1-28 (Chiron Mimotopes Peptide Systems) and β1-40 (Bachem Bioscience) peptides were dissolved in water. Aggregation solution conditions were 1×PBS, 1 mg/ml β-peptide and the pH was adjusted to the theoretical pI of the peptides (5.6 for β1-28 and 4.9 for β1-40). Solutions were kept at room temperature.
Binding of Active Site-labeled tPA to Amyloid Fibrils or to Fibrin—tPA binding was determined by a modification of the method of Higgins and Vehar, Biochem. 26:7786-7791 (1987)).
To confirm that the labeled tPA's protein binding surface was not altered by the radioiodination, it was bound to fibrin by substituting fibrinogen for the fibrils. Fibrin clot formation was initiated by adding 0.4 units/ml (final human thrombin. The remainder of the assay proceeded as above.
Ihibition of kringle-dependent labeled tPA Binding to Amyloid Fibrils and Fibrin Using ε-aminocaproic acid to the binding solutions were set up on the same manner as previously noted except that ε-aminocaproic acid at 0.1 M was included in the conditions.
Previous studies of the interaction of human tissue plasminogen activator with the amyloid β peptide employed a functional plasminogen activation assay (Kingston, I. B. et al., Nature Medicine 1:138-142 (1995); Castro, M. J. M., et al., Analyt. Biochem. 226:225-231 (1995)). However, to understand this interaction more fully, a sensitive and quantitative assay for measuring direct amyloid β peptide binding by t-PA and other fibrin(ogen)-binding proteins (e. g., plasmin) was employed in the present invention. For this purposed a specific probe molecule, D-Tyr-Pro-Arg chloromethyl ketone (YPACK), was radioiodinated with ^125I then reacted with t-PA, plasmin, and thrombin to effect covalent active site modification of their respective protease domains (Keyt, B. A. et al., Analyt. Biochem. 206:73-83 (1992)). Binding of ^125I-YPACK-modified t-PA to fibrin and amyloid β peptide fibrils was carried out by a modification of the method of Higgins, D. L. et al. (Fibrinolysis 6:161-166 (1992)). Incubations of t-PA (0.5 nM) with fibrin or fibrils (100 μg/ml) were in 1X phosphate buffered saline, 0.01% Tween-80, 0.5% bovine serum albumin, pH 7.4, for 60 min. at 37° C. In some instances, ε-amino caproic add (ε-ACA) was also present at a concentration of 100 mM.

[2] = Fibril formation (electron microscopy, light scattering); type: physicochemical; details: pH adjusted to theoretical pI
Method: Fibril formation was accomplished by taking the peptides up in water. 10×calcium and magnesium free phosphate buffered saline (“PBS”) was added to give a 1×PBS solution (2.7 mM KCl, 1.2 mM KH2PO4, 138 mM NaCl, 8.1 mM Na2HPO4). Fibril formation was obtained by adjusting the pH to the theoretical pI of the β-amyloid peptides. The theoretical pI of β-amyloid peptide 1-42 was 4.9; the theoretical pI of β-amyloid peptide 1-28 was 5.6; the theoretical pI of β-amyloid peptide 1-28 (Dutch) was 6.2. The final concentration of peptide was 1 mg/ml. […] Fibrils were observed immediately or within no more than two days at room temperature. Small aliquots of suspended aggregated peptides were absorbed onto carbon-coated copper grids and stained with 2% (w/v) uranyl acetate. Samples were examined in a JEOL 1200EX electron microscope.
as §1, with “temperature. Fibril formation was confirmed by light scattering and transmission electron microscopy.” for “temperature.”
It had been possible that some of the charged→glutamine peptide variants might not form fibrils. […]

[3] = target: tissue plasminogen activator (Homo sapiens, UniProt P00750); experiment: Plasminogen activation stimulation assay (H-D-valyl-L-leucyl-L-lysine-p-nitroanilide), Example 3; type: biochemical; details: stimulators at 56 μg/ml
Method: To further investigate this relationship, the ability of amyloid β peptide fibrils to stimulate tissue plasminogen activator was studied. For this purpose, plasminogen activation assays were carried out as described by Bennett, W. F. et al., J. Biol. Chem. 266:5191-5201 (1991)). Plasmin generation was monitored by measuring the absorbance change at 405 nm produced by hydrolysis of the substrate, H-D-valyl-L-leucyl-L-lysine-p-nitroanilide. Stimulators tested were present in the assay at a concentration of 56 μg/ml. The apparent first-order rate constants of plasminogen activation t-PA were measured for various stimulators. Rate constants were determined as described by Castro, M. J. M., et al., Analyt. Biochem. 226:225-231 (1995)) using fresh or aged amyloid β peptide fibrils or control proteins.
The twelve β1-28 peptide analogs were used for plasminogen activation and direct binding assays with the fibrinogen-binding proteins t-PA, plasmin, and thrombin, specifically labeled at their respective protease domain active sites as described above. For five of the peptide variants R5Q, […], D23Q, and K28Q, t-PA binding was reduced relative to its binding to both wt β1-28 and fibrin controls, implying that the t-PA binding “footprint” on the fibrils was rather large. […]

tPA [4] = target: T1, tPA; experiment: Plasminogen activation by t-PA, initial velocities under steady state conditions (S-2251, Lineweaver-Burk); type: biochemical; parameters: purchased Genentech, Inc. Activase; details: unaggregated peptides

T1 sequence (P00750 36-562): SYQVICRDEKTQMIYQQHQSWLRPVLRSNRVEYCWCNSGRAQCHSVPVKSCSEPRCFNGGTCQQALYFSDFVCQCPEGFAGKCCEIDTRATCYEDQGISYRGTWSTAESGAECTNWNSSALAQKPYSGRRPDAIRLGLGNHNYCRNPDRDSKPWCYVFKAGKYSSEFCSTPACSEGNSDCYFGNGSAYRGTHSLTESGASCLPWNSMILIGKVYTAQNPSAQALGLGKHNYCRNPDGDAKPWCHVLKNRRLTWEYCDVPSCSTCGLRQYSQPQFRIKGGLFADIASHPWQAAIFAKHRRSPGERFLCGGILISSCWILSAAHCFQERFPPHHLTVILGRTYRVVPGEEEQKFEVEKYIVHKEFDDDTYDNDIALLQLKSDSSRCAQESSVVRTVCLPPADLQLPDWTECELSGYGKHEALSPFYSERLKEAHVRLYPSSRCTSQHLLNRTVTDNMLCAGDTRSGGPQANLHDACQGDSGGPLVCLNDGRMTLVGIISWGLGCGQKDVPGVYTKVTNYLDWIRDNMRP
tissue plasminogen activator, sequence (P00750 23-562 limits assumed): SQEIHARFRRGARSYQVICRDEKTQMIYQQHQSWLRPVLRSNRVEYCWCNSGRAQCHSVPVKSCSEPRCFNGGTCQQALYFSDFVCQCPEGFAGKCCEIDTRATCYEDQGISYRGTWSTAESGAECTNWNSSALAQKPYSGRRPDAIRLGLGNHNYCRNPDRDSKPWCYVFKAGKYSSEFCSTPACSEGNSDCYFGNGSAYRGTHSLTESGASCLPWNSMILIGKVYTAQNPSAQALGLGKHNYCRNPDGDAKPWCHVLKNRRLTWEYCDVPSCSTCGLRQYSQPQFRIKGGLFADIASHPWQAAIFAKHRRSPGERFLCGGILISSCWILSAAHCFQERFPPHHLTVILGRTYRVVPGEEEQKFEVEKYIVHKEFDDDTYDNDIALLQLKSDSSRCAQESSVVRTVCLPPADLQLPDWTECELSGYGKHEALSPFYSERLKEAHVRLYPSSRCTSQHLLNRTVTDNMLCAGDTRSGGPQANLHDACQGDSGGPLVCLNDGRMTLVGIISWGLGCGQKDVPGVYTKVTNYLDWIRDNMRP

## NCCCCCC(=O)O [ε-aminocaproic acid, reference compound]
tPA [1]
  effect on tPA binding to amyloid fibrils: capable of competing out amyloid binding
tPA [1]; listed as ε-amino caproic acid
  effect on tPA binding to amyloid fibrils: partially blocked

## Corticotropin Releasing Factor: control peptide, 41 amino acids
[2]
  fibril formation: did not form fibrils

## DAEFQHDSGYEVHHQKLVFFAEDVGSNK [R5Q]
tPA [1]
  t-PA binding relative to wt β1-28 and fibrin controls: reduced

## DAEFRHDSGYEVHHQKLVFFAEDVGSNQ [K28Q]
tPA [1]
  t-PA binding relative to wt β1-28 and fibrin controls: reduced
[3]
  stimulation of t-PA-mediated plasminogen activation: profoundly decreased levels of stimulation

## DAEFRHDSGYEVHHQKLVFFAEQVGSNK [D23Q]
tPA [1]
  t-PA binding relative to wt β1-28 and fibrin controls: reduced

## DAEFRHDSGYEVHHQQLVFFAEDVGSNK [K16Q]
[3]
  stimulation of t-PA-mediated plasminogen activation: enhanced stimulation

## Fibrinogen
tPA [4]; Km of t-PA for plasminogen with the stimulator present
  Km: 3.3 µM
tPA [4]; kcat of t-PA with the stimulator present
  kcat: 0.051 s⁻¹

## Growth Hormone Releasing Factor: control peptide, 29 amino acids
[2]
  fibril formation: did not form fibrils

## β 1-40 Amyloid Fibrils: synthetic β1-40 amyloid peptide (Bachem Bioscience), aggregated to fibrils
tPA [1]; 125I-YPACK-modified t-PA
  Kd of t-PA binding to fibrils: sub-nanomolar range
tPA [1]; about 0.5 nM labeled tPA, 0.1 mg/ml fibrils or fibrin, 1 hour
  % tPA Bound: 62%
tPA [1]; radiolabeled tPA, tPA:fibrin binding as control
  tPA binding to amyloid fibrils (qualitative): binds
